Source: publication PMC7527728, “CPSF6-Dependent Targeting of Speckle-Associated Domains Distinguishes Primate from Nonprimate Lentiviral Integration” (mBio, 2020)
Primed or numbered codes have the meaning given here. Ends that are not written are not given here. FITC′ = fluorescein isothiocyanate label; Ahx = NCCCCCC(=O)O

Tests used:
Test in all cases: fluorescence polarisation; 150 nM FITC-Ahx-labelled peptide mixed with increasing capsid NTD protein (2 μM to 2 mM) in 50 mM Tris-HCl pH 8.0, 50 mM NaCl, 384-well plates; one-site specific binding model; the EIAV constants are called apparent
Settings in all cases: both partners purified
CPSF6_(276–290) peptide [1] = target: T1, CPSF6_(276–290) peptide (human, N-terminal fluorescein isothiocyanate (FITC)-Ahx)
T1 construct: also called CPSF6 peptide; fluorescently labeled CPSF6_(276–290) peptide; source: synthetic peptide (GenScript)

CPSF6_(276–290) peptide [2] = target: T1, CPSF6_(276–290) peptide; remark: listed apart in the source
[3] = target: T2, CPSF6_(276–290/F284A) peptide (human, F284A (stands in the printed letters))
T2 construct: cleavage and polyadenylation specificity factor 6 (CPSF6), human, residues 276-290 counted on the 551-residue isoform CPSF6[551], with F284A; source: synthetic peptide (GenScript)

Binder | Kd (CPSF6_(276–290) peptide [1]) | Kd (CPSF6_(276–290) peptide [2]) | Kd [3]
BIV capsid N-terminal domain (NTD) protein (domain or fragment) PAITTQDGTPRFDPDLMKQLKIWSDATERNGVDLHAVNILGVITANLVQEEIKLLLNSTPKWRLDVQLIESKVREKENAHRTWKQHHPEAPKTDEIIGKGLSSAEQATLISVECRETFRQWVLQAAMEVAQAKHATPG | > 2000 µM | > 5000 µM | > 3000 µM
FIV capsid N-terminal domain (NTD) protein (domain or fragment) PIQTVNGVPQYVALDPKMVSIFMEKAREGLGGEEVQLWFTAFSANLTPTDMATLIMAAPGCAADKEILDESLKQLTAEYDRTHPPDAPRPLPYFTAAEIMGIGLTQEQQAEARFAPARMQCRAWYLEALGKLAAIKA | > 2000 µM | > 4000 µM | > 7000 µM
EIAV capsid N-terminal domain (NTD) protein (domain or fragment) PIMIDGAGNRNFRPLTPRGYTTWVNTIQTNGLLNEASQNLFGILSVDCTSEEMNAFLDVVPGQAGQKQILLDAIDKIADDWDNRHPLPNAPLVAPPQGPIPMTARFIRGLGVPRERQMEPAFDQFRQTYRQWIIEAMSEGIKVMIG | – | – | 466 µM
MLV capsid N-terminal domain (NTD) protein (domain or fragment) PLRAGGNGQLQYWPFSSSDLYNWKNNNPSFSEDPGKLTALIESVLITHQPTWDDCQQLLGTLLTGEEKQRVLLEARKAVRGDDGRPTQLPNEVDAAFPLERPDWDYTTQAGRNHLVHYRQLLLAGLQNAGRS | > 2000 µM | > 5000 µM | –
